Test results from IntAct's records for PubMed 31515488.

B1: Leucine rich adaptor protein 1 (Homo sapiens), Q96LR2 (parent)
chain: MEGTVESQTPDLRDVEGKVGRKTPEGLLRGLRGECELGTSGALLLPGASSTGHDLGDKIMALKMELAYLRAIDVKILQQLVTLNEGIEAVRWLLEERGTLTSHCSSLTSSQYSLTGGSPGRSRRGSWDSLPDTSTTDRLDSVSIGSFLDTVAPSELDEQGPPGAPRSEMDWAKVIAGGERARTEVDVAATRLGSLRAVWKPPGERLQGGPPESPEDESAKLGFEAHWFWEQCQDDVTFL
partner: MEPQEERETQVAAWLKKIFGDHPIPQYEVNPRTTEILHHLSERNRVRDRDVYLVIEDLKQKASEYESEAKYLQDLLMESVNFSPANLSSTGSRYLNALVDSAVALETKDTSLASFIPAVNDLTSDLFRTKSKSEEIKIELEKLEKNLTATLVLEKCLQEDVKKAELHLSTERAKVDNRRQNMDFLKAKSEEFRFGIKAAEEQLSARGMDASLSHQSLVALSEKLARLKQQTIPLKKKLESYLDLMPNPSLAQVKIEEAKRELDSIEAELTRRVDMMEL
B2: Centrosomal protein of 55 kDa (Homo sapiens), Q53EZ4 (parent)
chain: MSSRSTKDLIKSKWGSKPSNSKSETTLEKLKGEIAHLKTSVDEITSGKGKLTDKERHRLLEKIRVLEAEKEKNAYQLTEKDKEIQRLRDQLKARYSTTTLLEQLEETTREGERREQVLKALSEEKDVLKQQLSAATSRIAELESKTNTLRLSQTVAPNCFNSSINNIHEMEIQLKDALEKNQQWLVYDQQREVYVKGLLAKIFELEKKTETAAHSLPQQTKKPESEGYLQEEKQKCYNDLLASAKKDLEVERQTITQLSFELSEFRRKYEETQKEVHNLNQLLYSQRRADVQHLEDDRHKTEKIQKLREENDIARGKLEEEKKRSEELLSQVQFLYTSLLKQQEEQTRVALLEQQMQACTLDFENEKLDRQHVQHQLHVILKELRKARNQITQLESLKQLHEFAITEPLVTFQGETENREKVAASPKSPTAALNESLVECPKCNIQYPATEHRDLLVHVEYCSK
partner: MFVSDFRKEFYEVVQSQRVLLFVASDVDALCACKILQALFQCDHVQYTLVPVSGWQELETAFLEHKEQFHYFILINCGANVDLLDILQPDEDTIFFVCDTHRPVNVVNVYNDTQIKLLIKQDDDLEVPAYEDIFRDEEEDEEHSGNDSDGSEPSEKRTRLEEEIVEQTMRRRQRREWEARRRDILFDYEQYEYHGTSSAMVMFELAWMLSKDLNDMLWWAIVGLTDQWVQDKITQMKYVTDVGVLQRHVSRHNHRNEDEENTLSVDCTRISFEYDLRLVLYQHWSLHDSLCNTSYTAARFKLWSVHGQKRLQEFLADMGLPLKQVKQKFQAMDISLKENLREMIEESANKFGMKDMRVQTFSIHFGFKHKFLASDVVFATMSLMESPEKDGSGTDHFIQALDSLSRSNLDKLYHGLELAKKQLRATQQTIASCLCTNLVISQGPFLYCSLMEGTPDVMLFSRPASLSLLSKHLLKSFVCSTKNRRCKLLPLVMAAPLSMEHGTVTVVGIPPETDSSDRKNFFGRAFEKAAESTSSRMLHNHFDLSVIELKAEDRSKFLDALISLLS
B3: Protein BEX5 (Homo sapiens), Q5H9J7 (parent)
chain: MENVPKENKVVEKAPVQNEAPALGGGEYQEPGGNVKGVWAPPAPGFGEDVPNRLVDNIDMIDGDGDDMERFMEEMRELRRKIRELQLRYSLRILIGDPPHHDHHDEFCLMP
B4: Antiviral innate immune response effector IFIT1 (Homo sapiens), P09914 (parent)
chain: MSTNGDDHQVKDSLEQLRCHFTWELSIDDDEMPDLENRVLDQIEFLDTKYSVGIHNLLAYVKHLKGQNEEALKSLKEAENLMQEEHDNQANVRSLVTWGNFAWMYYHMGRLAEAQTYLDKVENICKKLSNPFRYRMECPEIDCEEGWALLKCGGKNYERAKACFEKVLEVDPENPESSAGYAISAYRLDGFKLATKNHKPFSLLPLRQAVRLNPDNGYIKVLLALKLQDEGQEAEGEKYIEEALANMSSQTYVFRYAAKFYRRKGSVDKALELLKKALQETPTSVLLHHQIGLCYKAQMIQIKEATKGQPRGQNREKLDKMIRSAIFHFESAVEKKPTFEVAHLDLARMYIEAGNHRKAEENFQKLLCMKPVVEETMQDIHFHYGRFQEFQKKSDVNAIIHYLKAIKIEQASLTRDKSINSLKKLVLRKLRRKALDLESLSLLGFVYKLEGNMNEALEYYERALRLAADFENSVRQGP
partner: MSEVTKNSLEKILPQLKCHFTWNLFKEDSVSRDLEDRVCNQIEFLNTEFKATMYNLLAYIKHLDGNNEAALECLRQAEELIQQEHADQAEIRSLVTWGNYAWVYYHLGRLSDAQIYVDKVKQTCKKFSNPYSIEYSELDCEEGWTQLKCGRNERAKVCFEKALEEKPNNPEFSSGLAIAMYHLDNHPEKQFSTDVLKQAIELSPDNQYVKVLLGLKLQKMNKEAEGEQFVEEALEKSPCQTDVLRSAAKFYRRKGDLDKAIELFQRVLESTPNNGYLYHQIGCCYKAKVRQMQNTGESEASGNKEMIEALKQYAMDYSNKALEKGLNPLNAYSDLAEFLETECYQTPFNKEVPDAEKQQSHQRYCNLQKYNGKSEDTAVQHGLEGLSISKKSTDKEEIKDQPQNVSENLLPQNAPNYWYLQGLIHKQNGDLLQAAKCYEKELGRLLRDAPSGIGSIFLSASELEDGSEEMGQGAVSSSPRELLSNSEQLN
B5: Tuftelin-interacting protein 11 (Homo sapiens), Q9UBB9 (parent)
chain: MSLSHLYRDGEGRIDDDDDERENFEITDWDLQNEFNPNRQRHWQTKEEATYGVWAERDSDDERPSFGGKRARDYSAPVNFISAGLKKGAAEEAELEDSDDEEKPVKQDDFPKDFGPRKLKTGGNFKPSQKGFAGGTKSFMDFGSWERHTKGIGQKLLQKMGYVPGRGLGKNAQGIINPIEAKQRKGKGAVGAYGSERTTQSMQDFPVVDSEEEAEEEFQKELSQWRKDPSGSKKKPKYSYKTVEELKAKGRISKKLTAPQKELSQVKVIDMTGREQKVYYSYSQISHKHNVPDDGLPLQSQQLPQSGKEAKAPGFALPELEHNLQLLIDLTEQEIIQNDRQLQYERDMVVNLFHELEKMTEVLDHEERVISNLSKVLEMVEECERRMQPDCSNPLTLDECARIFETLQDKYYEEYRMSDRVDLAVAIVYPLMKEYFKEWDPLKDCTYGTEIISKWKSLLENDQLLSHGGQDLSADAFHRLIWEVWMPFVRNIVTQWQPRNCDPMVDFLDSWVHIIPVWILDNILDQLIFPKLQKEVENWNPLTDTVPIHSWIHPWLPLMQARLEPLYSPIRSKLSSALQKWHPSDSSAKLILQPWKDVFTPGSWEAFMVKNIVPKLGMCLGELVINPHQQHMDAFYWVIDWEGMISVSSLVGLLEKHFFPKWLQVLCSWLSNSPNYEEITKWYLGWKSMFSDQVLAHPSVKDKFNEALDIMNRAVSSNVGAYMQPGARENIAYLTHTERRKDFQYEAMQERREAENMAQRGIGVAASSVPMNFKDLIETKAEEHNIVFMPVIGKRHEGKQLYTFGRIVIYIDRGVVFVQGEKTWVPTSLQSLIDMAK
partner: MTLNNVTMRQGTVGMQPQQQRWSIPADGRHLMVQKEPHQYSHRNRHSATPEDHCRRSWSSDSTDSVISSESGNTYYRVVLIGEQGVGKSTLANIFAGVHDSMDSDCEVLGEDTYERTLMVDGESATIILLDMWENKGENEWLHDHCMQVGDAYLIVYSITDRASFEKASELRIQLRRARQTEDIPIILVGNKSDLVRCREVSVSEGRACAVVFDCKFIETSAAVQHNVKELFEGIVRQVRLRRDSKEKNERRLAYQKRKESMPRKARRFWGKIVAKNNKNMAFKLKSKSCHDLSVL

Variants of: B1
Settings: with haus1_human HAUS1, Q96CS2
For Q207R, the “effect of a mutation on the interaction” value was “with no effect”. For M60L, the “effect of a mutation on the interaction” value was “with no effect”.

Variants of: B2
Settings: with cdc45_human CDC45, O75419
H57Q was tested, and the “effect of a mutation on the interaction” value was “with no effect”. In the case of R348K, the “effect of a mutation on the interaction” value is reported as “with no effect”. In the case of A244P, the “effect of a mutation on the interaction” value is reported as “with no effect”. With C236R the “effect of a mutation on the interaction” value was “with no effect”.

Variants of: B3
Settings: with emil1_human EMILIN1, Q9Y6C2
Chain of emil1_human EMILIN1, Q9Y6C2 (Q9Y6C2 whole entry): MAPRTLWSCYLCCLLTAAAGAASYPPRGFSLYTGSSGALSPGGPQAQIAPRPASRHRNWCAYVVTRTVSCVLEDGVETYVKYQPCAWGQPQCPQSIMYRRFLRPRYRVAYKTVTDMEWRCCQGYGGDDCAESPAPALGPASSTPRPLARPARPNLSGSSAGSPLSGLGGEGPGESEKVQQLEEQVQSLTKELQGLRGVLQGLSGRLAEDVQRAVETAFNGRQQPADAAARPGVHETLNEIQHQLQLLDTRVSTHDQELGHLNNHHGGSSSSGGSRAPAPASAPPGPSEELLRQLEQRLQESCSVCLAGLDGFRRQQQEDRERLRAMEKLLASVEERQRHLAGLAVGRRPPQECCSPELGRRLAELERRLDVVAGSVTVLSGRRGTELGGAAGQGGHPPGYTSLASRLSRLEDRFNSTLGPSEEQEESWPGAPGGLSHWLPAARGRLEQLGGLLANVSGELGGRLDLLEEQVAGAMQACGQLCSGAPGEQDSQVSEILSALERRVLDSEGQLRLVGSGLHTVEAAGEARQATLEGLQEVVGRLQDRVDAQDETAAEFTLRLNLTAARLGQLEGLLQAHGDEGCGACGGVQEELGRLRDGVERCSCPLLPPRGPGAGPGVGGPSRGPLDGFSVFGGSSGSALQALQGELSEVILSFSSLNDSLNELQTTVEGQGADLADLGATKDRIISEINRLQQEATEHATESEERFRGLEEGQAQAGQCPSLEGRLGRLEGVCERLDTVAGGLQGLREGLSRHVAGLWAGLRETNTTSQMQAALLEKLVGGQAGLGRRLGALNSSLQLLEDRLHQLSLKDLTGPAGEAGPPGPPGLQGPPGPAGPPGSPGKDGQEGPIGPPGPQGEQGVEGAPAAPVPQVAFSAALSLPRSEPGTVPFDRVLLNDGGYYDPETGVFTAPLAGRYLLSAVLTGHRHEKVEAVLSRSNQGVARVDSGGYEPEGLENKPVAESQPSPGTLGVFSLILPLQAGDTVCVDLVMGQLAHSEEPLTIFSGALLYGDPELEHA
In the case of E74D, the “effect of a mutation on the interaction” value is reported as “disrupting interaction strength”.

Variants of: B4
Settings: with ifit3_human IFIT3, O14879
With A162T the “effect of a mutation on the interaction” value was “with no effect”. With M453T the “effect of a mutation on the interaction” value was “with no effect”.

Variants of: B5
Settings: with gem_human GEM
In the case of S688L, the “effect of a mutation on the interaction” value is reported as “with no effect”. For R8Q, the “effect of a mutation on the interaction” value was “with no effect”.
